Source: patent US5084274A, “Inhibition of arterial thrombotic occlusion or thromboembolism” (Scripps Clinic and Research Foundation, priority 1987, dated 1992)

What was measured:
[1] = system: acute myocardial infarction / occluded coronary arteries; conditions: cited from earlier work
[2] = system: platelet deposition in the Dacron graft; experiment: Platelet deposition (thrombus formation) in Dacron graft, arterial thrombosis model, 111In-labeled platelets; assay type: in vivo, baboon; conditions: 1 mg of t-PA (0.1 mg/kg/hour) infusion; previous studies, same model
Method: Permanent arteriovenous shunts were prepared between the femoral artery and vein using 3 mm i.d. Silastic tubing Subsequent interposition of 5 cm long, 4 mm i.d. Dacron vascular grafts served as thrombogenic surface, inducing continuous platelet-fibrinthrombus formation until progressive occlusion of the graft at 70±20 min.
All baboons underwent at least one control experiment prior to APC administration. The APC was given by injecting one-fourth to one-third of the total PC dose as a bolus and the remaining three-fourths to two-thirds of the dose as continuous infusion for one hour. The interposition of the graft and bolus injection were made at time=0 and APC was administered at the proximal site of the Silastic shunt. The experiments were divided into three groups; the "low dose" APC group received 2.0-3.4 mg (total), the "high dose" APC group received 11 mg (total), and the combination group received 2.1 mg APC plus 1.3 mg t-PA (total).
Platelet Deposition in the Dacron Graft
The deposition of ^III In-labeled Platelets was detected by scintillation camera images of the graft. […] Inhibition of platelet deposition in treated animals was expressed as % of total number of platelets deposited in the control experiments at 30 and 60 minutes timepoints.

B1: t-PA: t-PA from a melanoma cell line, provided by Dr. Desire Collen (Leuven, Belgium) (protein, UniProt P00750 36-562, looked up)
Tissue-type plasminogen …: SYQVICRDEKTQMIYQQHQSWLRPVLRSNRVEYCWCNSGRAQCHSVPVKSCSEPRCFNGGTCQQALYFSDFVCQCPEGFAGKCCEIDTRATCYEDQGISYRGTWSTAESGAECTNWNSSALAQKPYSGRRPDAIRLGLGNHNYCRNPDRDSKPWCYVFKAGKYSSEFCSTPACSEGNSDCYFGNGSAYRGTHSLTESGASCLPWNSMILIGKVYTAQNPSAQALGLGKHNYCRNPDGDAKPWCHVLKNRRLTWEYCDVPSCSTCGLRQYSQPQFRIKGGLFADIASHPWQAAIFAKHRRSPGERFLCGGILISSCWILSAAHCFQERFPPHHLTVILGRTYRVVPGEEEQKFEVEKYIVHKEFDDDTYDNDIALLQLKSDSSRCAQESSVVRTVCLPPADLQLPDWTECELSGYGKHEALSPFYSERLKEAHVRLYPSSRCTSQHLLNRTVTDNMLCAGDTRSGGPQANLHDACQGDSGGPLVCLNDGRMTLVGIISWGLGCGQKDVPGVYTKVTNYLDWIRDNMRP
Question: With B1 as the molecule, how does the “Patients with reocclusion after discontinuing t-PA infusion” value ([1]; after successful thrombolytic reperfusion, despite full-dose heparin therapy) read?
Answer: between one-four and one-third of patients

Question: What about the “Thrombolysis in acute myocardial infarction (in words)” value ([1]; infusion into humans) of the same molecule?
Answer: effective thrombolysis

Question: What about the “Antiplatelet effect (in words, FIG. 8)” value [2] of the same molecule?
Answer: intermediate antiplatelet effect
